The values below come from paper PMC8708005, “Poly(C)-binding Protein 2 Regulates the p53 Expression via Interactions with the 5′-Terminal Region of p53 mRNA”.

Data set [1] has as its target T1, PCBP2 (poly(C)-binding protein 2, hnRNP E2) (UniProt Q15366 1-365). The data set can be described thus: EMSA; 4 °C 25 min, 2.5 mM Mg2+, yeast tRNA and BSA; EMSA: 25 mM NaH2PO4 pH 8.0, 50 mM NaCl, 25 mM KCl, 2.5 mM MgCl2, 10 mM imidazole, 0.5 mM DTT, 0.5 mM PMSF, 7% glycerol, 0.5 U/uL RNasin, 75 ng/uL BSA, 100 ng/uL yeast tRNA; 4 °C 25 min (also 25 °C 15 min, 37 °C 10 min). The note with it: protein: recombinant; label: 5'-32P (EMSA); hairpins G56-C169 and U180-A218.

The target of data set [2] is T1, PCBP2 (poly(C)-binding protein 2, hnRNP …). The data set can be described thus: EMSA; 1000 and 2500 nM PCBP2, 4 °C; no change vs P1-Δ40p53; EMSA: 25 mM NaH2PO4 pH 8.0, 50 mM NaCl, 25 mM KCl, 2.5 mM MgCl2, 10 mM imidazole, 0.5 mM DTT, 0.5 mM PMSF, 7% glycerol, 0.5 U/uL RNasin, 75 ng/uL BSA, 100 ng/uL yeast tRNA; 4 °C 25 min (also 25 °C 15 min, 37 °C 10 min). The note with it: protein: recombinant, label: 5'-32P.

The target is the same in data set [3]. The data set can be described thus: EMSA; 4 °C 25 min, 2.5 mM Mg2+; additional intermediate complexes; text also reports decreased binding ability at fixed protein (Fig 3c); EMSA: 25 mM NaH2PO4 pH 8.0, 50 mM NaCl, 25 mM KCl, 2.5 mM MgCl2, 10 mM imidazole, 0.5 mM DTT, 0.5 mM PMSF, 7% glycerol, 0.5 U/uL RNasin, 75 ng/uL BSA, 100 ng/uL yeast tRNA; 4 °C 25 min (also 25 °C 15 min, 37 °C 10 min). The note with it: protein: recombinant; label: 5'-32P; shortened hairpin; C74-G144 pair replaces U57-G168. Background: A gel shift assay detects complexes by their altered migration in electrophoresis.

Data set [4] shares this target. The data set is described as follows: EMSA; no complex at 4-4000 nM; smeared shift at 5 and 10 uM; EMSA: 25 mM NaH2PO4 pH 8.0, 50 mM NaCl, 25 mM KCl, 2.5 mM MgCl2, 10 mM imidazole, 0.5 mM DTT, 0.5 mM PMSF, 7% glycerol, 0.5 U/uL RNasin, 75 ng/uL BSA, 100 ng/uL yeast tRNA; 4 °C 25 min (also 25 °C 15 min, 37 °C 10 min). The note with it: protein: recombinant; label: 5'-32P; hairpin.

The term Kd denotes the equilibrium constant for the complex coming apart.

Substitutions are numbered along the chain they refer to.

T1 sequence (Q15366 whole entry): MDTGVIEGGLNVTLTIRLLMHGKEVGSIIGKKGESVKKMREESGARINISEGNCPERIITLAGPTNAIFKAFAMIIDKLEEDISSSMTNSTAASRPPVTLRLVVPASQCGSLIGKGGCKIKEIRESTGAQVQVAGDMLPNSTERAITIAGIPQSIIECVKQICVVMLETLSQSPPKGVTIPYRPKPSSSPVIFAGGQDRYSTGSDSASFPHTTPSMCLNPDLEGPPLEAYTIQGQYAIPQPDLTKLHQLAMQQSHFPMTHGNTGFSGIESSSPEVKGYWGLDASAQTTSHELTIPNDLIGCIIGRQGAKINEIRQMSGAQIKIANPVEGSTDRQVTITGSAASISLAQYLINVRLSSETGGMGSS

B1: P1-Δ40p53 RNA (structured_RNA)
RNA: GGCUAGAGCCACCGUCCAGGGAGCAGGUAGCUGCUGGGCUCCGGGGACACUUUGCGUUCGGGCUGGGAGCGUGCUUUCCACGACGGUGACACGCUUCCCUGGAUUGGCAGCCAGACUGCCUUCCGGGUCACUGCCAUGGAGGAGCCGCAGUCAGAUCCUAGCGUCGAGCCCCCUCUGAGUCAGGAAACAUUUUCAGACCUAUGGAAACUACUUCCUGAAAACAACGUUCUGUCCCCCUUGCCGUCCCAAGCAAUG
Regarding B1, the Kd in data set [1] amounted to 95 ± 6 nM.

B2: P1-Δ40p53(S) RNA (structured_RNA)
RNA: B1 RNA with C81U, A83G
As for B2, in data set [2] (AUG1 in double-stranded region), the binding result is recorded as “binds”.

B3: P1-Δ40p53(L) RNA (structured_RNA)
RNA: B1 RNA with U77A, C78A, C79G, A80C
On to B3, for which, in data set [2] (AUG1 in internal loop), the binding result is listed as “binds”.

B4: P1-Δ40p53(Δ57) RNA (structured_RNA)
RNA: GGCUAGAGCCACCGUCCAGGGAGCAGGUAGCUGCUGGGCUCCGGGGACACUUUGCGCUUUCCACGACGGUGACACGCUUCCCGGUCACUGCCAUGGAGGAGCCCCCUCUGAGUCAGGAAACAUUUUCAGACCUAUGGAAACUACUUCCUGAAAACAACGUUCUGUCCCCCUUGCCGUCCCAAGCAAUG
Take B4: the Kd in data set [3] was 53 ± 6 nM.

B5: isolated hairpin G56-C169 RNA (structured_RNA)
RNA: GUUCGGGCUGGGAGCGUGCUUUCCACGACGGUGACACGCUUCCCUGGAUUGGCAGCCAGACUGCCUUCCGGGUCACUGCCAUGGAGGAGCCGCAGUCAGAUCCUAGCGUCGAGC
As to B5, the Kd in data set [4] is above 4000 nM.
